Here are results for one molecule from paper PMC5336075, “Single-Step Purification of Monomeric l-Selectin via Aptamer Affinity Chromatography”.

For this series, the target named is T1, L-selectin LE-His (monomeric, lectin and EGF-like domains) (human, UniProt P14151 39-194).
T1 sequence: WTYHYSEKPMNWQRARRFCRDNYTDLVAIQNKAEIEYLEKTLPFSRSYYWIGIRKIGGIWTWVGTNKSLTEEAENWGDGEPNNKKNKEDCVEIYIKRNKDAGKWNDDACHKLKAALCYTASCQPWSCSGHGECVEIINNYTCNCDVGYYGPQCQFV
Kind of series: SPR (single cycle kinetics); 1 mM CaCl2; protein in cell culture supernatant; abstract gives ~12 nM; SPR: HBS-Ca (20 mM HEPES pH 7.5, 150 mM NaCl, 1 mM CaCl2), Biacore X100, temperature not stated; column: PBS with 0.9 mM CaCl2 and 0.5 mM MgCl2, room temperature. To be noted: protein: recombinant; tags: C-terminal His; label: 5' biotin. (In SPR one partner is held on a chip, and binding of the other changes the refractive index at the surface.)

On to GCCAGTACAAGGTGCTAAACGTAATGGC (structured_DNA) [LD201mΔ1], for which the Kd (in general, the constant that tells how readily two partners part at equilibrium) is 11.2 ± 0.8 nM.
